# Data reported in patent US20220204580A1 (AstraZeneca / MedImmune, published 2022).
# Numbered stars: 1 amine (or outer) side, 2 acyl side, 3 side chain; on linkers, the order of the positions; unused ones are H or OH. Bridge positions count the residues as written; N and C are the ends. Square brackets hold non-standard residues; d marks the D form. Side chains are listed from the residue outwards. Ends that are not written are not given here. * marks the point of attachment. C18 diacid = O=C(O)CCCCCCCCCCCCCCCCC(=O)*; γGlu = O=C(O)[C@H](CCC(=O)[*:2])N[*:1]; Aib = CC(C)(N)C(=O)O
# T1: human amylin receptor (calcitonin receptor co-expressed with receptor activity modifying protein, RAMP3) (human, UniProt P30988 25-474; O60896 24-148)
# T1 sequence (looked up) 1: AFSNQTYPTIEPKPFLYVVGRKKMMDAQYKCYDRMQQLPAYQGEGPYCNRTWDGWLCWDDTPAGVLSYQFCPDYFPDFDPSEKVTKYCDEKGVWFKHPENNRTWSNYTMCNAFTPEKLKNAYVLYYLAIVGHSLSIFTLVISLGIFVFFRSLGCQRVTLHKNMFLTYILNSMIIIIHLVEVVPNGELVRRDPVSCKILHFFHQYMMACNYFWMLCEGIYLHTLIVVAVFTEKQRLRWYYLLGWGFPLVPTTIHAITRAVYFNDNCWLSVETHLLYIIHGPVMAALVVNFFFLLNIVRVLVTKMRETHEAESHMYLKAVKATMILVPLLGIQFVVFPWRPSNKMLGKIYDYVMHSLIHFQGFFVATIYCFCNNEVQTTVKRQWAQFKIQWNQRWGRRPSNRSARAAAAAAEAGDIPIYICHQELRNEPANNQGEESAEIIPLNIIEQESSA
# T1 sequence (looked up) 2: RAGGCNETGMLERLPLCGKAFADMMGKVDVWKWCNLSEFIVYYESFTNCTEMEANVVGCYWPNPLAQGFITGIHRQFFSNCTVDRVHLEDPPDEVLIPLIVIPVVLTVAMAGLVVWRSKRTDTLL
# T2: human calcitonin receptor (human, UniProt P30988 25-474)
# T2 sequence (looked up): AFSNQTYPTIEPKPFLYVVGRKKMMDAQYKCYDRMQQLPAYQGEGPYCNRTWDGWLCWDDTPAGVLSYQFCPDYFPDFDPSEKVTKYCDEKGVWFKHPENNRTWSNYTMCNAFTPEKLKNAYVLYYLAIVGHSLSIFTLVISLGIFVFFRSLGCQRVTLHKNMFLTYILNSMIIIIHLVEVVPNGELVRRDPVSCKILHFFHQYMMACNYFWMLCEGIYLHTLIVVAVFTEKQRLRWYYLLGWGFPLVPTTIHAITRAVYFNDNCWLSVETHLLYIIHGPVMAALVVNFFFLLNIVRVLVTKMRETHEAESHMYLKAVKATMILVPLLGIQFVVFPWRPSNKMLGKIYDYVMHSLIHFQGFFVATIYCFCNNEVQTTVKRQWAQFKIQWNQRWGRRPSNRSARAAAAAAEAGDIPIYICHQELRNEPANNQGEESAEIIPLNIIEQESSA
# Legend:
# [1] = molecular target: T1, human amylin receptor (calcitonin …); assay: cell-based or functional assay
# [2] = molecular target: T2, human calcitonin receptor; assay: cell-based or functional assay
Binder,EC50 (cAMP production) [1] [nM],Ratio (EC50 hCTR / EC50 hAMYR3) [1],EC50 (cAMP production) [2] [nM]
K([γGlu-C18 diacid])KCNTATCATQRLANFLSHSS[Aib]NFGPILPPTHVGSNTY-NH2 (disulfide 3-8; N-terminus assumed; SMILES CC[C@H](C)[C@H](NC(=O)[C@@H]1CCCN1C(=O)CNC(=O)[C@H](Cc1ccccc1)NC(=O)[C@H](CC(N)=O)NC(=O)C(C)(C)NC(=O)[C@H](CO)NC(=O)[C@H](CO)NC(=O)[C@H](Cc1c[nH]cn1)NC(=O)[C@H](CO)NC(=O)[C@H](CC(C)C)NC(=O)[C@H](Cc1ccccc1)NC(=O)[C@H](CC(N)=O)NC(=O)[C@H](C)NC(=O)[C@H](CC(C)C)NC(=O)[C@H](CCCNC(=N)N)NC(=O)[C@H](CCC(N)=O)NC(=O)[C@@H](NC(=O)[C@H](C)NC(=O)[C@@H]1CSSC[C@H](NC(=O)[C@H](CCCCN)NC(=O)[C@@H](N)CCCCNC(=O)CC[C@H](NC(=O)CCCCCCCCCCCCCCCCC(=O)O)C(=O)O)C(=O)N[C@@H](CC(N)=O)C(=O)N[C@@H]([C@@H](C)O)C(=O)N[C@@H](C)C(=O)N[C@@H]([C@@H](C)O)C(=O)N1)[C@@H](C)O)C(=O)N[C@@H](CC(C)C)C(=O)N1CCC[C@H]1C(=O)N1CCC[C@H]1C(=O)N[C@H](C(=O)N[C@@H](Cc1c[nH]cn1)C(=O)N[C@H](C(=O)NCC(=O)N[C@@H](CO)C(=O)N[C@@H](CC(N)=O)C(=O)N[C@H](C(=O)N[C@@H](Cc1ccc(O)cc1)C(N)=O)[C@@H](C)O)C(C)C)[C@@H](C)O) [Peptide 51 (SEQ ID NO: 51)],0.126,13,1.65
K([γGlu-γGlu-C18 diacid])CNTATCATQRLANFLVHSS[Aib]NFGPILPPTEVGSNTY-NH2 (disulfide 2-7; N-terminus assumed; SMILES CC[C@H](C)[C@H](NC(=O)[C@@H]1CCCN1C(=O)CNC(=O)[C@H](Cc1ccccc1)NC(=O)[C@H](CC(N)=O)NC(=O)C(C)(C)NC(=O)[C@H](CO)NC(=O)[C@H](CO)NC(=O)[C@H](Cc1c[nH]cn1)NC(=O)[C@@H](NC(=O)[C@H](CC(C)C)NC(=O)[C@H](Cc1ccccc1)NC(=O)[C@H](CC(N)=O)NC(=O)[C@H](C)NC(=O)[C@H](CC(C)C)NC(=O)[C@H](CCCNC(=N)N)NC(=O)[C@H](CCC(N)=O)NC(=O)[C@@H](NC(=O)[C@H](C)NC(=O)[C@@H]1CSSC[C@H](NC(=O)[C@@H](N)CCCCNC(=O)CC[C@H](NC(=O)CC[C@H](NC(=O)CCCCCCCCCCCCCCCCC(=O)O)C(=O)O)C(=O)O)C(=O)N[C@@H](CC(N)=O)C(=O)N[C@@H]([C@@H](C)O)C(=O)N[C@@H](C)C(=O)N[C@@H]([C@@H](C)O)C(=O)N1)[C@@H](C)O)C(C)C)C(=O)N[C@@H](CC(C)C)C(=O)N1CCC[C@H]1C(=O)N1CCC[C@H]1C(=O)N[C@H](C(=O)N[C@@H](CCC(=O)O)C(=O)N[C@H](C(=O)NCC(=O)N[C@@H](CO)C(=O)N[C@@H](CC(N)=O)C(=O)N[C@H](C(=O)N[C@@H](Cc1ccc(O)cc1)C(N)=O)[C@@H](C)O)C(C)C)[C@@H](C)O) [Peptide 49 (SEQ ID NO: 49)],0.334,12,4.14

# Further lines, results first:
EC50 (cAMP production) [1] [nM],Ratio (EC50 hCTR / EC50 hAMYR3) [1],EC50 (cAMP production) [2] [nM],Binder
0.089,12,1.1,K([γGlu-C18 diacid])KCNTATCATQRLANFLSHSS[Aib]NFGPILPPTRVGSNTY-NH2 (disulfide 3-8; N-terminus assumed; SMILES CC[C@H](C)[C@H](NC(=O)[C@@H]1CCCN1C(=O)CNC(=O)[C@H](Cc1ccccc1)NC(=O)[C@H](CC(N)=O)NC(=O)C(C)(C)NC(=O)[C@H](CO)NC(=O)[C@H](CO)NC(=O)[C@H](Cc1c[nH]cn1)NC(=O)[C@H](CO)NC(=O)[C@H](CC(C)C)NC(=O)[C@H](Cc1ccccc1)NC(=O)[C@H](CC(N)=O)NC(=O)[C@H](C)NC(=O)[C@H](CC(C)C)NC(=O)[C@H](CCCNC(=N)N)NC(=O)[C@H](CCC(N)=O)NC(=O)[C@@H](NC(=O)[C@H](C)NC(=O)[C@@H]1CSSC[C@H](NC(=O)[C@H](CCCCN)NC(=O)[C@@H](N)CCCCNC(=O)CC[C@H](NC(=O)CCCCCCCCCCCCCCCCC(=O)O)C(=O)O)C(=O)N[C@@H](CC(N)=O)C(=O)N[C@@H]([C@@H](C)O)C(=O)N[C@@H](C)C(=O)N[C@@H]([C@@H](C)O)C(=O)N1)[C@@H](C)O)C(=O)N[C@@H](CC(C)C)C(=O)N1CCC[C@H]1C(=O)N1CCC[C@H]1C(=O)N[C@H](C(=O)N[C@@H](CCCNC(=N)N)C(=O)N[C@H](C(=O)NCC(=O)N[C@@H](CO)C(=O)N[C@@H](CC(N)=O)C(=O)N[C@H](C(=O)N[C@@H](Cc1ccc(O)cc1)C(N)=O)[C@@H](C)O)C(C)C)[C@@H](C)O) [Peptide 52 (SEQ ID NO: 52)]
0.349,54,18.9,K([γGlu-γGlu-C18 diacid])CNTATCATQRLANFLRHSS[Aib]NFGPILPPTEVGSNTY-NH2 (disulfide 2-7; N-terminus assumed; SMILES CC[C@H](C)[C@H](NC(=O)[C@@H]1CCCN1C(=O)CNC(=O)[C@H](Cc1ccccc1)NC(=O)[C@H](CC(N)=O)NC(=O)C(C)(C)NC(=O)[C@H](CO)NC(=O)[C@H](CO)NC(=O)[C@H](Cc1c[nH]cn1)NC(=O)[C@H](CCCNC(=N)N)NC(=O)[C@H](CC(C)C)NC(=O)[C@H](Cc1ccccc1)NC(=O)[C@H](CC(N)=O)NC(=O)[C@H](C)NC(=O)[C@H](CC(C)C)NC(=O)[C@H](CCCNC(=N)N)NC(=O)[C@H](CCC(N)=O)NC(=O)[C@@H](NC(=O)[C@H](C)NC(=O)[C@@H]1CSSC[C@H](NC(=O)[C@@H](N)CCCCNC(=O)CC[C@H](NC(=O)CC[C@H](NC(=O)CCCCCCCCCCCCCCCCC(=O)O)C(=O)O)C(=O)O)C(=O)N[C@@H](CC(N)=O)C(=O)N[C@@H]([C@@H](C)O)C(=O)N[C@@H](C)C(=O)N[C@@H]([C@@H](C)O)C(=O)N1)[C@@H](C)O)C(=O)N[C@@H](CC(C)C)C(=O)N1CCC[C@H]1C(=O)N1CCC[C@H]1C(=O)N[C@H](C(=O)N[C@@H](CCC(=O)O)C(=O)N[C@H](C(=O)NCC(=O)N[C@@H](CO)C(=O)N[C@@H](CC(N)=O)C(=O)N[C@H](C(=O)N[C@@H](Cc1ccc(O)cc1)C(N)=O)[C@@H](C)O)C(C)C)[C@@H](C)O) [Peptide 50 (SEQ ID NO: 50)]
